# Reference: the supplement of paper PMC10065799, “High-throughput profiling of sequence recognition by tyrosine kinases and SH2 domains using bacterial peptide display” (eLife, 2023)
# Tests used:
# c-Src SH2 = experiment: SH2 binding enrichment of the phosphorylated peptide, bacterial display (enrichment ratio); higher = better substrate or ligand; peptides without Tyr show the background
# Grb2 SH2 = Grb2 SH2 (UniProt P62993); experiment: as above
# SHP2-C SH2 = experiment: as above
# Fyn = Fyn (UniProt P06241); experiment: phosphorylation enrichment, bacterial display (enrichment ratio); higher = better substrate or ligand; peptides without Tyr show the background
# Chain of Fyn (P06241 whole entry, looked up): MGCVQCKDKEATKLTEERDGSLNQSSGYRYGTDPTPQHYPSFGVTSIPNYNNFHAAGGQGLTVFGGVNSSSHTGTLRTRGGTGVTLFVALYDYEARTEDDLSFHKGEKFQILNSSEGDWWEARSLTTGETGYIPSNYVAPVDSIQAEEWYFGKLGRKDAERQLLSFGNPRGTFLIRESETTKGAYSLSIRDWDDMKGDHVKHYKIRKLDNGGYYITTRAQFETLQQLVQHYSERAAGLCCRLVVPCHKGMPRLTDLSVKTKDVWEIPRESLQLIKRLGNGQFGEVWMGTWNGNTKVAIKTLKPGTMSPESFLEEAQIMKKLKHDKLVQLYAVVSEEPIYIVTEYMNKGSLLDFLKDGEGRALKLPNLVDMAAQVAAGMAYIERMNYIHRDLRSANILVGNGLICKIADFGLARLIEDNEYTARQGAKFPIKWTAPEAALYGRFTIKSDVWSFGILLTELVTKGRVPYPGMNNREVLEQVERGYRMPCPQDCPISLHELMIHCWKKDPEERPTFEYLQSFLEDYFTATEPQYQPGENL
# AncSZ = experiment: as above
# Fer (mouse) = experiment: as above
# MERTK = MERTK (UniProt Q12866); experiment: as above
# Chain of MERTK (Q12866 whole entry, looked up): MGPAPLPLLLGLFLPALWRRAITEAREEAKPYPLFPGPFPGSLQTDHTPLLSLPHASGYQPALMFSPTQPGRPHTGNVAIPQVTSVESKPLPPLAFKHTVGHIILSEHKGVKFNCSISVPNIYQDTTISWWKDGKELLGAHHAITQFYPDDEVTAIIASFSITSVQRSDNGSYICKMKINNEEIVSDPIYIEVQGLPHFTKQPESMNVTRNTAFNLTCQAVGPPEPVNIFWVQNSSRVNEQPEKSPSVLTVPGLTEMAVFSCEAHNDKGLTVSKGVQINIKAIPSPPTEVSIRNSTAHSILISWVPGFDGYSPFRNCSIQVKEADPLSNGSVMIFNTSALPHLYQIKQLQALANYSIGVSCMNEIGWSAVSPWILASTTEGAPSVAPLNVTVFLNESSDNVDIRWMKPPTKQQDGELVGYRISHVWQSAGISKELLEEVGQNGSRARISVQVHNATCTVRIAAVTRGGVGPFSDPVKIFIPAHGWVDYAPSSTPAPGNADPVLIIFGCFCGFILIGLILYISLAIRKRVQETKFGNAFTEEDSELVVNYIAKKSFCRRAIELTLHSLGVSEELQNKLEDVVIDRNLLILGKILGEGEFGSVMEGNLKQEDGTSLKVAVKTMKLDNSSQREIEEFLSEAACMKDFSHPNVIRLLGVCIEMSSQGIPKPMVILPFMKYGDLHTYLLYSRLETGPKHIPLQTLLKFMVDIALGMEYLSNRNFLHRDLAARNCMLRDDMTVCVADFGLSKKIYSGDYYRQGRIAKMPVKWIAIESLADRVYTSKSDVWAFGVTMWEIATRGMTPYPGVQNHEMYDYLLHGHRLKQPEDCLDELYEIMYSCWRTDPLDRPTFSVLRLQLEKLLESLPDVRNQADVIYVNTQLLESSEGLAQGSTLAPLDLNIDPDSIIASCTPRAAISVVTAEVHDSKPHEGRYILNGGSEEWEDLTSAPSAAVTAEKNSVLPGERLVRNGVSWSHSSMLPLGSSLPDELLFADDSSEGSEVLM
# c-Abl (mouse) = experiment: as above
# Fes = Fes (UniProt P07332); experiment: as above
# EPHB1 = EPHB1 (UniProt P54762); experiment: as above
# Chain of EPHB1 (P54762 whole entry, looked up): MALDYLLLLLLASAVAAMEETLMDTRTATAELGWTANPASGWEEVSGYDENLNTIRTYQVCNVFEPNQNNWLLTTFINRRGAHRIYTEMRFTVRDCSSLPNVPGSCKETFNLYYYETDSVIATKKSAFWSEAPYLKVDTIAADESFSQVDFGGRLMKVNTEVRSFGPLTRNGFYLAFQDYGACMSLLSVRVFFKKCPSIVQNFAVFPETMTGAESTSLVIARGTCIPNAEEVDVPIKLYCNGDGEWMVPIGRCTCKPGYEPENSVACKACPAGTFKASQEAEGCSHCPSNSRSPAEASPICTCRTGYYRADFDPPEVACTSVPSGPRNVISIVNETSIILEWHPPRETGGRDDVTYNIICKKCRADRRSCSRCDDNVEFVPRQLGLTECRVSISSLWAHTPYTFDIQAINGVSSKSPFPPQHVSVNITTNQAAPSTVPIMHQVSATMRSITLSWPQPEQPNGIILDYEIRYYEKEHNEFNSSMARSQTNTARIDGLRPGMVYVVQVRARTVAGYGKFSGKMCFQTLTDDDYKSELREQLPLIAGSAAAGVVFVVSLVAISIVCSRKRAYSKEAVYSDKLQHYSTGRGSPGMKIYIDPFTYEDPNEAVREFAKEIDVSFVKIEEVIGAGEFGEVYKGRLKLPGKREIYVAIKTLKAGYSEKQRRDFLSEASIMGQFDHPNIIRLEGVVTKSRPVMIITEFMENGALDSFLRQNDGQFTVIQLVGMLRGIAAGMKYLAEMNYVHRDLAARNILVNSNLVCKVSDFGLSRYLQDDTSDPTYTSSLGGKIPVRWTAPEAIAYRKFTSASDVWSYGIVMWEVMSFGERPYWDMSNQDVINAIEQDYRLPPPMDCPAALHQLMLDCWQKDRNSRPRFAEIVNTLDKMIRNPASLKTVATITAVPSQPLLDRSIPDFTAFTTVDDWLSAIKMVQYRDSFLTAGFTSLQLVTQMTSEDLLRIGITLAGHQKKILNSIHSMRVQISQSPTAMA
# Hck = Hck (UniProt P08631); experiment: as above
# Chain of Hck (P08631 whole entry, looked up): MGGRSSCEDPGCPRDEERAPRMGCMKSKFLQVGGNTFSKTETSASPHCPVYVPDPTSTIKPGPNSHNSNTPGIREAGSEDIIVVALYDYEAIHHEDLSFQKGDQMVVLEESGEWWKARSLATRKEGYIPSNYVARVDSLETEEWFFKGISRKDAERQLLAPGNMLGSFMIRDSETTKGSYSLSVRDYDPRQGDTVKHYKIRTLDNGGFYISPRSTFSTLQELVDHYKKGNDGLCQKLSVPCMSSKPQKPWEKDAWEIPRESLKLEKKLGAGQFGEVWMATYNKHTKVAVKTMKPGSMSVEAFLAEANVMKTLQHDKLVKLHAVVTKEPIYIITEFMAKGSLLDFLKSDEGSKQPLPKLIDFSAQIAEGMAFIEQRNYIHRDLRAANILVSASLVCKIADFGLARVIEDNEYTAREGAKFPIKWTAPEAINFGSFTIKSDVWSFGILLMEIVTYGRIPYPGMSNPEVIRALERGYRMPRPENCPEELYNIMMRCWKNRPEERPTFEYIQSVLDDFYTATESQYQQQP
# Jak2 = Jak2 (UniProt O60674); experiment: as above
# FGFR1 = FGFR1 (UniProt P11362); experiment: as above
# Chain of FGFR1 (P11362 whole entry, looked up): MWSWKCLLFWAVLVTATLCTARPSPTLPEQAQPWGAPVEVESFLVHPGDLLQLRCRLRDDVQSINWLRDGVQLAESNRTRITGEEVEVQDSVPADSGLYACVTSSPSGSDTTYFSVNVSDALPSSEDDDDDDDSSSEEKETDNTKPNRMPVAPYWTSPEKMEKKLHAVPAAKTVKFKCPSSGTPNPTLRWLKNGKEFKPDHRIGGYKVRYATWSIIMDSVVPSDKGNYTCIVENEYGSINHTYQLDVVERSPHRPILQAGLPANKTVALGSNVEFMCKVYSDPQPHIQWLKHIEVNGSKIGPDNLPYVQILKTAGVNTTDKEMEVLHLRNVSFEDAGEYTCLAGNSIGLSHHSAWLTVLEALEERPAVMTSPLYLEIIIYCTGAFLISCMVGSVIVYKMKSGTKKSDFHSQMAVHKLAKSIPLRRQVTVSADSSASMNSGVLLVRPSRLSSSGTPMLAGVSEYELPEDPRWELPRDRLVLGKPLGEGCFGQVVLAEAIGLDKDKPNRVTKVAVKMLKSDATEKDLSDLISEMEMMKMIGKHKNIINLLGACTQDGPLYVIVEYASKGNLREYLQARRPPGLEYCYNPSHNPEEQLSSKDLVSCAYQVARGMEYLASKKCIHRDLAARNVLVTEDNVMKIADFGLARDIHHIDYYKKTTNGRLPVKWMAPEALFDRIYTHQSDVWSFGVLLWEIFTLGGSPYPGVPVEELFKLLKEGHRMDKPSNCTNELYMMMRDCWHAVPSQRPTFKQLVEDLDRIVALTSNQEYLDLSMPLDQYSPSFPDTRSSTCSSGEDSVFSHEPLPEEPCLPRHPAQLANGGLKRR
# c-Src = experiment: as above
# FGFR3 = FGFR3 (UniProt P22607); experiment: as above
# Chain of FGFR3 (P22607 whole entry, looked up): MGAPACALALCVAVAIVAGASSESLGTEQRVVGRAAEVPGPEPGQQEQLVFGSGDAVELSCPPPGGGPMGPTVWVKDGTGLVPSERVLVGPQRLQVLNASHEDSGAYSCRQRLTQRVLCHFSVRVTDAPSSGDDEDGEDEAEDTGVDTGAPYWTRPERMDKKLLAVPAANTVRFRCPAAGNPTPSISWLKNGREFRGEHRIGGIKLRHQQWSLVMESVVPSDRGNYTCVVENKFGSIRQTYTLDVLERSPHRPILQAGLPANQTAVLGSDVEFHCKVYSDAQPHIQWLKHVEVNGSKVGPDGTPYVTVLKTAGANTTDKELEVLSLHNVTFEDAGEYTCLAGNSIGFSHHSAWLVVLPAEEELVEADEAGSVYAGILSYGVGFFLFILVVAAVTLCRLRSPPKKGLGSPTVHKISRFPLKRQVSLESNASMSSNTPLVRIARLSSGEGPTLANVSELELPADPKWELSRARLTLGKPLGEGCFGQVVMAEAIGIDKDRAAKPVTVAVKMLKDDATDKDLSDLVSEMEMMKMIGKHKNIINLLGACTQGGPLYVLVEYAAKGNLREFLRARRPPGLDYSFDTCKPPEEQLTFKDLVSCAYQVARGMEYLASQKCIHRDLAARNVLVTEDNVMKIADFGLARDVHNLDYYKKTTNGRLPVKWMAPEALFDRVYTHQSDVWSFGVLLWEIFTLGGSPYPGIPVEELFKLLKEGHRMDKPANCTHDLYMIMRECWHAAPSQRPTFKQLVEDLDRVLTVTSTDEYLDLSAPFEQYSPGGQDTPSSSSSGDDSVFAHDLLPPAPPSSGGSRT
# EPHB2 = EPHB2 (UniProt P29323); experiment: as above
# 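Throughout, for SH2 binding enrichment of the phosphorylated peptide, bacterial display: peptide library displayed on the E. coli surface as eCPX fusions, selected cells deep-sequenced, score is each peptide's frequency after selection divided by its frequency in the input.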
# 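Throughout, for phosphorylation enrichment, bacterial display: 11-residue human phosphosite peptides and single-mutation variants displayed on the E. coli surface, counted by deep sequencing, each peptide's frequency after selection divided by its frequency in the unselected input library; frequency after pTyr selection over input frequency; kinase dosed for 20-30% of maximal phosphorylation in three min.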
# Chain of Grb2 SH2 (P62993 whole entry, looked up): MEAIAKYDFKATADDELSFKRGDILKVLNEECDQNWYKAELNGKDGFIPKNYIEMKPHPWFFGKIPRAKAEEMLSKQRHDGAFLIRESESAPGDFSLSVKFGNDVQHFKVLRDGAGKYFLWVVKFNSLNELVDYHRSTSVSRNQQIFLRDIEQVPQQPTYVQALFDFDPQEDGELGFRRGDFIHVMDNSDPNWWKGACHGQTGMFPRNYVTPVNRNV
Sequence,SH2 binding enrichment (c-Src SH2),SH2 binding enrichment (Grb2 SH2),SH2 binding enrichment (SHP2-C SH2),phosphorylation enrichment (Fyn),phosphorylation enrichment (AncSZ),phosphorylation enrichment (Fer (mouse)),phosphorylation enrichment (MERTK),phosphorylation enrichment (c-Abl (mouse)),phosphorylation enrichment (Fes),phosphorylation enrichment (EPHB1),phosphorylation enrichment (Hck),phosphorylation enrichment (Jak2),phosphorylation enrichment (FGFR1),phosphorylation enrichment (c-Src),phosphorylation enrichment (FGFR3),phosphorylation enrichment (EPHB2)
FRKNTYNVKST [SYNE2_Y575_I574T_YF],0.679,1.27,0.976,0.426,0.466,0.375,0.473,0.609,0.578,0.425,0.402,0.402,0.352,0.437,0.366,0.333
EEQKKYYNATK [SCN5A_Y1494_M1498T],0.559,1.01,0.482,0.467,0.59,0.421,0.411,0.407,0.673,0.543,0.478,0.476,1.29,0.363,0.554,0.521
LITLVYGCSRQ [TMPRSS6_Y290_S288L],0.54,1.29,1.04,0.578,1.7,0.848,0.851,0.978,1.74,0.644,0.721,1.86,0.599,1.08,0.863,0.876
KLADMYGGGED [CDH1_Y876],0.558,0.812,0.748,0.484,0.766,0.461,0.436,0.455,0.79,0.424,0.463,0.732,0.561,0.42,0.509,0.43
QDGFSYPSRQM [LDLR_Y847_YF],0.66,1.48,0.725,0.434,0.378,0.409,0.415,0.621,0.53,0.218,0.522,0.454,0.453,0.398,0.325,0.479
RRIHSHRGHLW [VHL_Y112_Y112H],0.378,0.906,0.262,0.604,0.918,0.689,0.621,0.909,1.01,0.773,0.737,0.659,0.558,0.828,0.701,0.732
ARVDTYCRHNY [HLA-DRB1_Y107_A103R],0.752,1.09,0.755,0.552,0.825,0.812,0.538,0.797,1.09,0.6,0.502,0.798,0.582,0.468,0.698,0.583
SSQHRYSTPHT [RAF1_Y232_A237T],3.04,0.813,0.876,0.348,0.45,0.425,0.405,0.448,0.477,0.343,0.312,0.487,0.352,0.423,0.369,0.37
VFAPDFIAGVS [NOB1_Y366_Y366F],0.551,0.584,0.727,0.436,0.69,0.392,0.469,0.709,1.02,0.52,0.435,0.775,0.664,0.501,0.619,0.479
MTFMFYRENLR [NLRP14_Y443_V441M_YF],0.567,0.909,1.22,0.537,1.45,0.705,0.526,0.879,1.28,0.691,0.518,1.32,0.545,0.445,0.784,0.724
ACCLLYRGDVV [TUBA4A_Y319],0.776,1.05,0.849,0.565,0.947,0.758,0.709,0.482,0.889,0.507,0.645,0.853,3.27,5.88,1.34,0.557
RNIQQCNSFVS [PRKAR1A_Y373_Y373C],0.572,0.82,0.8,0.506,1.28,0.773,0.66,0.922,1.18,0.718,0.711,1.4,0.501,0.707,0.662,0.634
HSGVSYFINLC [IGF2R_Y2024_N2020S_YF],0.461,0.651,0.491,0.44,1.47,0.652,0.417,1.21,1.51,0.682,0.482,1.34,0.439,0.439,0.835,0.558
VMAALYGRLYE [BTD_Y536_T532M],1.52,1.3,1.53,5.87,0.795,1.38,3,0.8,0.963,0.961,5.58,0.864,0.468,5.01,0.617,1.42
RAHARYCADAR [ACOT4_Y52],0.656,0.92,0.746,0.392,0.614,0.333,0.444,0.689,1.08,0.444,0.54,0.533,0.406,0.419,0.633,0.676
